Bridge positions count the residues as written; N and C are the ends. Ends that are not written are not given here.
Experiments:
[1] = molecular target: T1, proprotein convertase subtilisin/kexin type 9 (PCSK9) (human, UniProt Q8NBP7 31-152); assay: competition
[2] = molecular target: T1, proprotein convertase subtilisin/kexin …; assay: phage competition ELISA; competing phage K9gvpep4
[3] = molecular target: T1, proprotein convertase subtilisin/kexin …; assay: phage competition ELISA; competing phage pep2-8

T1 sequence (Q8NBP7 31-152, chain 1 of 2): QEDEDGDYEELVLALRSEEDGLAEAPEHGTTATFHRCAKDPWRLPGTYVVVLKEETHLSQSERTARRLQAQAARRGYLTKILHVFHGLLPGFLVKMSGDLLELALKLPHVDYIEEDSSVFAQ
T1 sequence (Q8NBP7 153-692, chain 2 of 2): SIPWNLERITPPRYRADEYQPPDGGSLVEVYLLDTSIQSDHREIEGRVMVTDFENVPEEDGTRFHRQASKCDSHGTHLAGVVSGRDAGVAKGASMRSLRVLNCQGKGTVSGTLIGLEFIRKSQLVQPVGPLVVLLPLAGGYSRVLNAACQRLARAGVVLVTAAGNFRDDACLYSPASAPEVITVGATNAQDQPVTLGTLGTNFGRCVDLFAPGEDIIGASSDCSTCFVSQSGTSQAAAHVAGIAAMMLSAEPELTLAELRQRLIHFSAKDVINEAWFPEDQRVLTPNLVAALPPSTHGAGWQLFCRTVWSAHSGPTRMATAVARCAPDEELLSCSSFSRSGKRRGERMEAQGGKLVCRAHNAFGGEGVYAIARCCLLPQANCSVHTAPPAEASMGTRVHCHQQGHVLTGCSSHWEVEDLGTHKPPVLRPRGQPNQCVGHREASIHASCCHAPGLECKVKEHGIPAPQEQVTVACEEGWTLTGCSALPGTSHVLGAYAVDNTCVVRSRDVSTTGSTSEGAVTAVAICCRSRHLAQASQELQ

Binder: SGDLMPWNLVRIGLLR [K9gvpep7]
- IC50 [1]: 635 nM

Binder: Ac-TVFTSWEEYLDWVGSGDLMPWNLVRIGLLR-NH2 [Compound 20]
- IC50 [2]: 2.69 nM
- IC50 [3]: 14.5 nM

Binder: Ac-TVFTSWEEYLDWVGSGCRLPWNLQRIGLPC-NH2 (disulfide 17-30 (inferred)) [Compound 19]
- IC50 [2]: 3.44 nM
- IC50 [3]: 6.19 nM

Binder: SGCRLPWNLQRIGLPC (not fully specified (bridges); cysteine pairing not given here) [K9gvpep4]
- IC50 [1]: 318 nM
